# Results reported in patent US20260015406A1 (University of Pennsylvania, published 2026).
# T1: human full length CDH17, also called cadherin 17 or liver-intestine cadherin (human, UniProt Q12864 23-832)
# T1 sequence (looked up): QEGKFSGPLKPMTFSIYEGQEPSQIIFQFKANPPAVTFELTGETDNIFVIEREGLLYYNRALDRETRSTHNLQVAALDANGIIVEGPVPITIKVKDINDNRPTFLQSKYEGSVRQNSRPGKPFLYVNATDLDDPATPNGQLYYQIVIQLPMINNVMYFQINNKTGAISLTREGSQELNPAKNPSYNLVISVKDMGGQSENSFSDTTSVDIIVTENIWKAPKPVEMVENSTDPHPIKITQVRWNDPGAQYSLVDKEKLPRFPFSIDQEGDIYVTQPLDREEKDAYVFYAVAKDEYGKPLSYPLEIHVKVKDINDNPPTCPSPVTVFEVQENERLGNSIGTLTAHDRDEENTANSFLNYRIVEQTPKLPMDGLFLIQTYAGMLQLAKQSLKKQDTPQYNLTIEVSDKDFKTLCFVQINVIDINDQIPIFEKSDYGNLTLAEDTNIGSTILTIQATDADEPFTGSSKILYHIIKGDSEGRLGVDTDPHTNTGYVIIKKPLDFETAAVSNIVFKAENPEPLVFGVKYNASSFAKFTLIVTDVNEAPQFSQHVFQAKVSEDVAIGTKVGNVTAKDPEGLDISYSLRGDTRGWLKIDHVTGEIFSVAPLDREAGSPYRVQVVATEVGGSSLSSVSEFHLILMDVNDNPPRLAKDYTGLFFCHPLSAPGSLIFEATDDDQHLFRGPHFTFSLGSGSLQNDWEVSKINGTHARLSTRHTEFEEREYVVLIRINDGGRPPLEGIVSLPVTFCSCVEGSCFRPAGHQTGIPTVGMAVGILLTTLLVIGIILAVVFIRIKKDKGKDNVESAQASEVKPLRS
# T2: mouse CDH17 (mouse, UniProt Q9R100 26-827)
# T2 construct: whole, on cells
# T2 sequence (looked up): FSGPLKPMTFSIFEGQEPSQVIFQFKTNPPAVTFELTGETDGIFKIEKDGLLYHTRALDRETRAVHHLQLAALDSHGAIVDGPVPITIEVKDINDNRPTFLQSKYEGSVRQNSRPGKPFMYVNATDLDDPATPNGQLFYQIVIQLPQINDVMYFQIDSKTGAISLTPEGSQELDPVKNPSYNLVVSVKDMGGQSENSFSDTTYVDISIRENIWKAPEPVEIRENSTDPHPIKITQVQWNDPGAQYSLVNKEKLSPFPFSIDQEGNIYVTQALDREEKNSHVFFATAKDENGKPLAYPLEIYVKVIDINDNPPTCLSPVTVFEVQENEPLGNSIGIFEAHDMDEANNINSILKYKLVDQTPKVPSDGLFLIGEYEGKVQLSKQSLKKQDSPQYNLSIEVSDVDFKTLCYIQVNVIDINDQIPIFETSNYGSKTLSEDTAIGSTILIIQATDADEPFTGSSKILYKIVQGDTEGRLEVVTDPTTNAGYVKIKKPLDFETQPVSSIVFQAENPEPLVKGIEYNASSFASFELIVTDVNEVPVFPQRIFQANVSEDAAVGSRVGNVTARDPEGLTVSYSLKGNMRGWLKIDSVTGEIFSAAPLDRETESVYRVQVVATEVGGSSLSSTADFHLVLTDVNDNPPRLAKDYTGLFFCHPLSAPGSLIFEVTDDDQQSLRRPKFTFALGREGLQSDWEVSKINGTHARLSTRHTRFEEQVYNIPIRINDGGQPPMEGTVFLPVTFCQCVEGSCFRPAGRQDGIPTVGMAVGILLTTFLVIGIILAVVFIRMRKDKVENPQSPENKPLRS
# B1: Nb163 (VHH)
# VHH: QVQLQESGGGLVQPGGSLRLSCVPSGFTFDGYLIGWFRQAPGSERKAVSCISVNGDRTNYADSVKGRFTISRDNAKNTVYLQMNSLRPNDTAIYYCATRRGNRLYNNNCPYFEYGTWGQGTQVTVSS
# notes: also called VHH163; VH163
# B2: Nb157-C-PNE (VHH)
# VHH: QVQLQESGGGLVQPGGSLSLSCTASGFTFSSYSMAWVRQAPGKGPEWVSGIYPSDGKTRYADFVKGRFSISRDNAKNMLYLQMNNLEPEDTALYYCARGITGLGPRGQGTQVTVSS
# notes: also called VHH157-C-PNE; Nb157 with C-terminal PNE; not shown: PNE, a fourteen amino acid peptide
# B3: Nb157-N-PNE (VHH)
# VHH: B2 VHH
# notes: also called VHH157-N-PNE; Nb157 with N-terminal PNE; not shown: PNE, a fourteen amino acid peptide
# B4: Nb157 (VHH)
# VHH: B2 VHH
# notes: Llama nanobody from the THP-1-immunised library; also called VHH157; VH157
# B5: VLV-DM1 (VHH, not shown: small tags and cut ends)
# VHH 1: QVQLQESGGGLVQPGGSTRLSCVSSRTFSYYDMGWFRQAPGKEREFVALLSWNGENAEYSDSVMGRFTVSRGNTQNSVNLQMNNLKPEDTGIYYCAVTHGGARSVRSWGQGTQVTVSS
# VHH 2: B5 VHH 1
# modifications: Mertansine (DM1) is conjugated to the VLV protein; the residues, number of drugs and chemical linker are not stated. In reality one polypeptide: the two VHH1 units are joined by a peptide linker whose letters are not given.
# B6: VHH1 nanobody (VHH)
# VHH: B5 VHH 1
# notes: From a naive llama phage library panned on BON cells
# Legend:
# [1] = biological target: switchable CAR (sCAR) with anti-PNE single chain variable fragment; test: flow cytometry, PNE-FITC titrated on sCAR T cells
# [2] = biological target: T3, human full length aminopeptidase N (APN, aka CD13) (human, UniProt P15144 2-967); test: flow cytometry on patient-derived AML cells (AML2844)
# T3 construct: whole, on cells
# T3 sequence (P15144 2-967): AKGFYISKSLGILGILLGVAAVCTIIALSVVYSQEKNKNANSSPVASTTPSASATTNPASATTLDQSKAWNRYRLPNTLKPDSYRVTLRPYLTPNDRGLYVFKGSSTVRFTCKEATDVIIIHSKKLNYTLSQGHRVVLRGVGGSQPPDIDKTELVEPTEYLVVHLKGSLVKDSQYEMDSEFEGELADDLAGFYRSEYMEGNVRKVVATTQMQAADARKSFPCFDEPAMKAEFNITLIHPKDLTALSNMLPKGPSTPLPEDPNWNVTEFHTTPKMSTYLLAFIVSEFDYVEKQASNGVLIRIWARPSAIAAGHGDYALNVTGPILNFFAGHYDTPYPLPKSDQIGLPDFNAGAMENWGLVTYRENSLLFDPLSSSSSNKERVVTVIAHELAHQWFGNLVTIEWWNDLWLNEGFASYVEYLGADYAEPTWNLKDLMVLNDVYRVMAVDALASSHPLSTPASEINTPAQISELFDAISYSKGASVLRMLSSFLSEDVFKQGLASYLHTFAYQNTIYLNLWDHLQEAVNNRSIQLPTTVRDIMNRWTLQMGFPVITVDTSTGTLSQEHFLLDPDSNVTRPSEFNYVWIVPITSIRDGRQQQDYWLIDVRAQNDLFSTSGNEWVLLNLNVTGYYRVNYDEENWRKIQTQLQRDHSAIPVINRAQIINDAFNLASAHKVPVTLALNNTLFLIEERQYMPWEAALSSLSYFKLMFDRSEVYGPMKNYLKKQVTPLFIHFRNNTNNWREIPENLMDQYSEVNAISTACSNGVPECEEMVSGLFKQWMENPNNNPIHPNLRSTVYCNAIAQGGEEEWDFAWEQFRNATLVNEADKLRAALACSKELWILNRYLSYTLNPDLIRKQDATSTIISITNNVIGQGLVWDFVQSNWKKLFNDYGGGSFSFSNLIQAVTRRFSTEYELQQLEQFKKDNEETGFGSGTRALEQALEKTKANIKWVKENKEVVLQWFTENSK
# [3] = biological target: T3, human full length aminopeptidase N …; test: flow cytometry on THP-1 cells (endogenous CD13)
# [4] = biological target: T1, human full length CDH17, also called …; test: cell-based or functional assay
# [5] = biological target: T1, human full length CDH17, also called …; test: flow cytometry, VHH1-expressing phage on HEK293T cells transfected with membrane protein cDNAs
# Procedure: (§1) Next, to identify the protein antigen of the isolated VHH1 nanobody, ˜3000 human cell membrane protein cDNAs were prepared and transfected into HEK293T cells individually, followed by flow cytometry analysis with the VHH1-expressing phage and FITC-labeled secondary antibody against phage M13 protein (FIG. 12A). […] Human or mouse CDH17 cDNA was transiently transfected into HEK293T cells, followed by flow cytometry analysis with the VHH1-expressing phage and FITC-labeled secondary antibody against phage M13 protein.
# mouse CDH17 = biological target: T2, mouse CDH17; test: flow cytometry, VHH1-expressing phage on HEK293T cells transiently transfected with CDH17 cDNA
# Procedure: as §1
molecule,measurement,setting,value
FITC-labeled PNE-peptide,EC50,[1],1 nM
B1,binding result,[2],binds
B2,Kd,[3],~35 nM
B3,Kd,[3],~90 nM
B4,Kd,[3],~35 nM
B5,"IC50, in vitro killing of BON cells (MTT assay)",[4],1.2 nM
B6,binding result,[5],binds
same,binding result,mouse CDH17,binds
